The values that follow come from patent US20060039913A1 (Janssen / Centocor, published 2006).

“And” between values parts separate entries of the source, which are not always exact repeats. Equal entries are not always repeated.

Assay [1] deals with chemokine receptor CCR2 on THP-1 cells (human) (UniProt P41597). Description: radioligand saturation binding on THP-1 cells, one-site binding hyperbola fit; mass concentration as fitted.
Assay [2] has the same target. Description: radioligand saturation binding on THP-1 cells, one-site binding hyperbola fit; molar conversion with 150 kDa.
Assay [3] shares this target. Description: radioligand saturation binding of 125I MCP-1 to THP-1 cells (CCR2), specific bound cpm, one site binding (hyperbola) fit.
The target of assay [4] is T1, recombinant human MCP-1 (monocyte chemoattractant protein 1) (human, UniProt P13500 24-99). Description: cell-based or functional assay.
Assay [5] deals with T1, recombinant human MCP-1 (monocyte …). Description: BIAcore, ratio of binding constants, reference eotaxin. As for the experimental part:
(§1) Anti-MCP-1 monoclonal antibodies were captured onto a BIAcore CM5 sensor surface (Biacore International, Piscataway, N.J.). A solution containing a mixture of rabbit anti-human Fc specific polyclonal antibodies and rabbit anti-mouse Fc specific polyclonal antibodies was first immobilized onto the sensor surface. After the restabilization of the new baseline, the anti-MCP-1 mAb is passed over the surface.
(§2) Analysis is performed as described above, with the exception only a single concentration is used, typically, a high ligand concentration (100 nM). Chemokines selected for mAb specificity were human forms of MCP-1, MCP-2, Eotaxin-1, Eotaxin-2 (CCL24, MPIF-2, NP_{—}002982) and Eotaxin-3 (CCL26, GenBank Q9Y258). All chemokines were purchased from R&D Systems. Dextran-sulfate (1%) was added to the sample buffer in the final round of assays to reduce non-specific binding, particularly to eotaxin-3.
The data for binding of C775 to each of the ligand described was processed to give a binding constant, where measurable. There was no measurable binding of C775 to any of the other MCP-1 homologs or eotaxin homologs. The calculated binding constant of C775 to MCP-1 by this method was 1.0 nM and for eotaxin >5 uM, respectively, for a ligand concentration 100 nM. Therefore, the binding specificity of C775 for MCP-1 as compared to eotaxin is >5000 fold. […]
In general terms: In SPR one partner is held on a chip, and binding of the other changes the refractive index at the surface.

Assay [6] has the same target. Description: BIAcore, C775 captured on anti-Fc surface, MCP-1 in solution, 25 C.
Text: as §1
(§3) Human MCP-1 purchased from R&D Systems (www.rndsystems.com) was reconstituted as proscribed by the vendor. Samples of varying concentrations were prepared using this stock solution. They were then passed over the surface of captured anti-MCP-1 mAb using KINJECT command at a flow rate of […]. Measurements are typically performed at 25° C. Sensor data was analyzed using the BLAevaluation software provided with the instrument.

Assay [7] deals with T2, human MCP-2 (human, UniProt P80075 24-99).
T2 sequence (looked up): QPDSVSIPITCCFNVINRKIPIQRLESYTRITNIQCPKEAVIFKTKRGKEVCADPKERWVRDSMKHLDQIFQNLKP
Description: BIAcore, C775 captured on anti-Fc surface, single ligand concentration.
Text: as §1, §3, §2

For assay [8], the target named is T3, human Eotaxin-2 (CCL24, MPIF-2) (human, UniProt O00175 27-104, limits assumed).
T3 sequence (looked up): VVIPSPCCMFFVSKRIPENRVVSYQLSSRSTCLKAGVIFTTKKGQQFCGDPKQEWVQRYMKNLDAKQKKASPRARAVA
The assay is described as above.
Text: as §1, §3, §2

Assay [9] concerns the target T4, human Eotaxin-3 (CCL26) (human, UniProt Q9Y258 24-94).
T4 sequence (looked up): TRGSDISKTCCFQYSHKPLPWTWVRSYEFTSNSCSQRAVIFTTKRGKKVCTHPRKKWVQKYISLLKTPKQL
The assay is described as above.
Text: as §1, §3, §2

Assay [10] deals with T5, 125I labeled human MCP-1 (NEX332, Perkin Elmer) (human, UniProt P13500 24-99, 125I label, residue not stated).
T5 construct: Bought radio-iodinated MCP-1; also called radiolabeled MCP-1
Description: inhibition of 125I MCP-1 (1 ng/ml) binding to CCR2 on THP-1 cells, filter plate radioligand assay. As for the experimental part:
Negative controls (no inhibition) or total binding was measured in 50 ul of assay buffer with no other additions. Nonspecific binding (background) was measured by adding 50 ul of MCP-1 at a final concentration of […]. Test wells received 50 ul of serial dilutions of mAb. Lastly, 50 ul of ¹²⁵I MCP-1 at a final concentration of 1 ng/ml was added to all wells resulting in a total assay volume of […].
To test the efficacy of anti-MCP-1 mabs, a concentration of 1 ng/ml ¹²⁵I MCP-1 was used. Cells were incubated with 1 ng/ml ¹²⁵I MCP-1 with or without serial dilutions of either the commercial Mab (positive control) or 6 different Mabs generated in Example 2. There is a dose-dependent inhibition of ¹²⁵I MCP-1 binding to the CCR2 receptor with the commercial Mab. A dose-dependent inhibition was also observed with five of the six Centocor-generated Mabs allowing the calculation of an IC50 concentration: C727, C728, C752, C753 and, C775.

T1 sequence (P13500 24-99 limits assumed): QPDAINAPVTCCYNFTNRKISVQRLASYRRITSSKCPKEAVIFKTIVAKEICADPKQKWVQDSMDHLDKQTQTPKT
T5 sequence (P13500 24-99 limits assumed): as above

As for “125I labeled human MCP-1 (NEX332, Perkin Elmer) (from UniProt P13500 24-99) (ligand)”, the values for the Kd in [1] and in [2] were 0.00896 µg/mL and 1 nM, respectively. This molecule also had a BMAX in assay [3] of 15700 cpm.

B1: murine anti-human MCP-1 monoclonal antibody C775 (antibody, mouse IgG1, V domains shown)
VH: QVQLKQSGAELVRPGASVKLSCKASGYTFTDYYINWVKQRPGQGLEWIARIYPGTGNTYYNENFKGKATLTAEKSSSTAYMQLSSLTSEDSAVYFCARSGSTVVGNYYGMDYWGQGTSVTVSS
VL: SIVMTQTPKFLLVSAGDRVSITCKASQSVSNDVAWYQQKPGQSPKLLIYYASNRYTGVPDRFTGSGYGTDFTFTISTVQAEDLAVYFCQQDYSSPWTFGGGTKLEIKR
notes: also called CNTO4874; CNTO 4874
On to B1, for which the “IC50 (nM), Ca2+ mobilization in THP-1 cells with 300 ng/ml MCP-1” value in [4] was found to be 53 nM. Moreover, the “IC50 (µg/ml), Ca2+ mobilization in THP-1 cells with 300 ng/ml MCP-1” value in assay [4] stood at 8.01 µg/mL. Further, the “binding specificity for MCP-1 as compared to eotaxin (fold)” value in [5] is > 5000 fold. Also, in assay [6], the Kd (commonly a measure of binding affinity in units of concentration) amounted to 1 nM. Besides, the binding result in [7], in assay [8] and in assay [9] was “no binding (tested: 100 nM ligand)” throughout. In [10], the IC50 (usually the point on the concentration scale where inhibition reaches its midpoint) was 7.1 µg/mL and 47 nM.
